Data taken from US20100215651A1 (GLENMARK PHARMACEUTICALS S A, published 2010).

T1: human CD19 (human, UniProt P15391 20-556)
T1 construct: CD19 as expressed on Raji, NALM-6 and SU-DHL-6 cells; also called CD19 antigen; B-cell surface antigen B4
T1 sequence: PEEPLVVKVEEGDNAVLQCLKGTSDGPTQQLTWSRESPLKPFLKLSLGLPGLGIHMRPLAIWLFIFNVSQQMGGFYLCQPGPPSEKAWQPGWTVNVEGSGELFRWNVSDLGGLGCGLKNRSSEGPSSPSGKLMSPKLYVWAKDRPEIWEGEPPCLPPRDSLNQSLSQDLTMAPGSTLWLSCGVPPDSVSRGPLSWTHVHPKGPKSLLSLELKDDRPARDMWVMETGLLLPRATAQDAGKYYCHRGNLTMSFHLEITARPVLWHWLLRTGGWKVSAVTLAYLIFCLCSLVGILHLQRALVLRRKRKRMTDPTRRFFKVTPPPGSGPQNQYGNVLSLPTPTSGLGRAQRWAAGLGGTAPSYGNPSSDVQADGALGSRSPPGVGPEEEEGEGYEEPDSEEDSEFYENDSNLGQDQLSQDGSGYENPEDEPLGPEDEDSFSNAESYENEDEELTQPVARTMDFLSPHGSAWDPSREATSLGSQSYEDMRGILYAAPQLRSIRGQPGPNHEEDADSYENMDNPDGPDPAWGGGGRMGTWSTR

B1: VH2VL40 (antibody, V domains shown)
VH: EVQLVESGGGVVQPGRSLRLSCAASGVSLPDYGVSWVRQAPGKGLEWVAVIWGSETTYYNSALKSRFTISRDNSKNTLYLQMNSLKTEDTAVYYCTTHYYYGGSYAMDYWGQGTLVTVSS
VL: DIVMTQTPSSLSASVGDRVTITCRASQDISKYLNWYQQKPGKVPNLLIYHTSRLHSGVPSRFSGSGSGTEFTLTISSLQPEDFATYYCQQGNTLPYTFGGGTKVEIKR
B2: VH16/VL44 (antibody, human IgG1, V domains shown)
VH: QVQLVQSGGGVVQPGRSLRLSCAASGVSLPDYGVSWVRQAPGKGLEWVAVIWGSETTYYNSALKSRFTISRDNSKNTLYLQMNSLRAEDTAVYYCARHYYYGGSYAMDYWGQGTLVTVSS
VL: DIVMTQSPSSMSASIGDRVTITCRASQDISKYLNWYQQKPGKAPNLLIYHTSRLHSGVPSRFSGSGSGTEFTLTISSLQPEDFATYYCQQGNTLPYTFGQGTKLEIKR
B3: VH16 Y32F/R94K/Y97F/VL43 V3Q/T7S/P44I/N92A (antibody, human IgG1, name in Kabat numbering, V domains shown)
VH: QVQLVQSGGGVVQPGRSLRLSCAASGVSLPDFGVSWVRQAPGKGLEWVAVIWGSETTYYNSALKSRFTISRDNSKNTLYLQMNSLRAEDTAVYYCAKHYFYGGSYAMDYWGQGTLVTVSS
VL: DIQMTQSPSSLSASVGDRVTITCRASQDISKYLNWYQQKPGKAIKLLIYHTSRLHSGVPSRFSGSGSGTDFTLTISSLQPEDFATYYCQQGATLPYTFGPGTKVDIKR
notes: Full-length human IgG1/kappa; substitutions in Kabat numbering
B4: VH16-F67L/VL43-P44V (antibody, human IgG1, name in Kabat numbering, V domains shown)
VH: QVQLVQSGGGVVQPGRSLRLSCAASGVSLPDYGVSWVRQAPGKGLEWVAVIWGSETTYYNSALKSRLTISRDNSKNTLYLQMNSLRAEDTAVYYCARHYYYGGSYAMDYWGQGTLVTVSS
VL: DIVMTQTPSSLSASVGDRVTITCRASQDISKYLNWYQQKPGKAVKLLIYHTSRLHSGVPSRFSGSGSGTDFTLTISSLQPEDFATYYCQQGNTLPYTFGPGTKVDIKR
notes: substitutions in Kabat numbering
B5: VH16-G42R/VL43-Y87F (antibody, human IgG1, name in Kabat numbering, V domains shown)
VH: QVQLVQSGGGVVQPGRSLRLSCAASGVSLPDYGVSWVRQAPRKGLEWVAVIWGSETTYYNSALKSRFTISRDNSKNTLYLQMNSLRAEDTAVYYCARHYYYGGSYAMDYWGQGTLVTVSS
VL: DIVMTQTPSSLSASVGDRVTITCRASQDISKYLNWYQQKPGKAPKLLIYHTSRLHSGVPSRFSGSGSGTDFTLTISSLQPEDFATYFCQQGNTLPYTFGPGTKVDIKR
notes: as for B4
B6: VH16/VL40 (antibody, human IgG1, V domains shown)
VH: QVQLVQSGGGVVQPGRSLRLSCAASGVSLPDYGVSWVRQAPGKGLEWVAVIWGSETTYYNSALKSRFTISRDNSKNTLYLQMNSLRAEDTAVYYCARHYYYGGSYAMDYWGQGTLVTVSS
VL: DIVMTQTPSSLSASVGDRVTITCRASQDISKYLNWYQQKPGKVPNLLIYHTSRLHSGVPSRFSGSGSGTEFTLTISSLQPEDFATYYCQQGNTLPYTFGGGTKVEIKR
B7: VH16/VL43-P44V (antibody, human IgG1, V domains shown)
VH: QVQLVQSGGGVVQPGRSLRLSCAASGVSLPDYGVSWVRQAPGKGLEWVAVIWGSETTYYNSALKSRFTISRDNSKNTLYLQMNSLRAEDTAVYYCARHYYYGGSYAMDYWGQGTLVTVSS
VL: DIVMTQTPSSLSASVGDRVTITCRASQDISKYLNWYQQKPGKAVKLLIYHTSRLHSGVPSRFSGSGSGTDFTLTISSLQPEDFATYYCQQGNTLPYTFGPGTKVDIKR
notes: as for B4
B8: VH16-L78V/VL43-P44V (antibody, human IgG1, name in Kabat numbering, V domains shown)
VH: QVQLVQSGGGVVQPGRSLRLSCAASGVSLPDYGVSWVRQAPGKGLEWVAVIWGSETTYYNSALKSRFTISRDNSKNTVYLQMNSLRAEDTAVYYCARHYYYGGSYAMDYWGQGTLVTVSS
VL: DIVMTQTPSSLSASVGDRVTITCRASQDISKYLNWYQQKPGKAVKLLIYHTSRLHSGVPSRFSGSGSGTDFTLTISSLQPEDFATYYCQQGNTLPYTFGPGTKVDIKR
notes: as for B4
B9: VH16-G42R/VL43 (antibody, human IgG1, name in Kabat numbering, V domains shown)
VH: QVQLVQSGGGVVQPGRSLRLSCAASGVSLPDYGVSWVRQAPRKGLEWVAVIWGSETTYYNSALKSRFTISRDNSKNTLYLQMNSLRAEDTAVYYCARHYYYGGSYAMDYWGQGTLVTVSS
VL: DIVMTQTPSSLSASVGDRVTITCRASQDISKYLNWYQQKPGKAPKLLIYHTSRLHSGVPSRFSGSGSGTDFTLTISSLQPEDFATYYCQQGNTLPYTFGPGTKVDIKR
notes: as for B4
B10: VH16-R71K/VL43-F71Y (antibody, human IgG1, name in Kabat numbering, V domains shown)
VH: QVQLVQSGGGVVQPGRSLRLSCAASGVSLPDYGVSWVRQAPGKGLEWVAVIWGSETTYYNSALKSRFTISKDNSKNTLYLQMNSLRAEDTAVYYCARHYYYGGSYAMDYWGQGTLVTVSS
VL: DIVMTQTPSSLSASVGDRVTITCRASQDISKYLNWYQQKPGKAPKLLIYHTSRLHSGVPSRFSGSGSGTDYTLTISSLQPEDFATYYCQQGNTLPYTFGPGTKVDIKR
notes: as for B4
B11: VH16-F67L/VL43 (antibody, human IgG1, name in Kabat numbering, V domains shown)
VH: QVQLVQSGGGVVQPGRSLRLSCAASGVSLPDYGVSWVRQAPGKGLEWVAVIWGSETTYYNSALKSRLTISRDNSKNTLYLQMNSLRAEDTAVYYCARHYYYGGSYAMDYWGQGTLVTVSS
VL: DIVMTQTPSSLSASVGDRVTITCRASQDISKYLNWYQQKPGKAPKLLIYHTSRLHSGVPSRFSGSGSGTDFTLTISSLQPEDFATYYCQQGNTLPYTFGPGTKVDIKR
notes: as for B4
B12: VH16/VL39 (antibody, human IgG1, V domains shown)
VH: QVQLVQSGGGVVQPGRSLRLSCAASGVSLPDYGVSWVRQAPGKGLEWVAVIWGSETTYYNSALKSRFTISRDNSKNTLYLQMNSLRAEDTAVYYCARHYYYGGSYAMDYWGQGTLVTVSS
VL: DIVMTQSPSTLSASVGDRVTITCRASQDISKYLNWYQQKPGKAPKLLIYHTSRLHSGVPSRFSGSGSGTEFTLTISSLQPDDFATYYCQQGNTLPYTFGQGTKVEIKR
B13: VH16-R94K/VL43-P44V (antibody, human IgG1, V domains shown)
VH: QVQLVQSGGGVVQPGRSLRLSCAASGVSLPDYGVSWVRQAPGKGLEWVAVIWGSETTYYNSALKSRFTISRDNSKNTLYLQMNSLRAEDTAVYYCAKHYYYGGSYAMDYWGQGTLVTVSS
VL: DIVMTQTPSSLSASVGDRVTITCRASQDISKYLNWYQQKPGKAVKLLIYHTSRLHSGVPSRFSGSGSGTDFTLTISSLQPEDFATYYCQQGNTLPYTFGPGTKVDIKR
notes: as for B3
B14: VH20/VL39 (antibody, human IgG1, V domains shown)
VH: QVQLVQSGGGLVQPGGSLRLSCVASGVSLPDYGVSWVRQAPGKGLEWVSVIWGSETTYYNSALKSRFTISRDNAKNSLYLQMNSLRAEDTAVYYCARHYYYGGSYAMDYWGQGTLVTVSS
VL: DIVMTQSPSTLSASVGDRVTITCRASQDISKYLNWYQQKPGKAPKLLIYHTSRLHSGVPSRFSGSGSGTEFTLTISSLQPDDFATYYCQQGNTLPYTFGQGTKVEIKR
B15: VH5VL43 (antibody, V domains shown)
VH: EVQLVESGGGLVKPGGSLRLSCAASGVSLPDYGVSWIRQAPGKGLEWVSVIWGSETTYYNSALKSRFTISRDNAKNSLYLQMDSLRVEDTAVYYCAGHYYYGGSYAMDYWGQGTLVTVSS
VL: DIVMTQTPSSLSASVGDRVTITCRASQDISKYLNWYQQKPGKAPKLLIYHTSRLHSGVPSRFSGSGSGTDFTLTISSLQPEDFATYYCQQGNTLPYTFGPGTKVDIKR
B16: VH16-R94K/VL43-F71Y (antibody, human IgG1, V domains shown)
VH: QVQLVQSGGGVVQPGRSLRLSCAASGVSLPDYGVSWVRQAPGKGLEWVAVIWGSETTYYNSALKSRFTISRDNSKNTLYLQMNSLRAEDTAVYYCAKHYYYGGSYAMDYWGQGTLVTVSS
VL: DIVMTQTPSSLSASVGDRVTITCRASQDISKYLNWYQQKPGKAPKLLIYHTSRLHSGVPSRFSGSGSGTDYTLTISSLQPEDFATYYCQQGNTLPYTFGPGTKVDIKR
notes: as for B3
B17: VH16-G42R/VL43-F71Y (antibody, human IgG1, name in Kabat numbering, V domains shown)
VH: QVQLVQSGGGVVQPGRSLRLSCAASGVSLPDYGVSWVRQAPRKGLEWVAVIWGSETTYYNSALKSRFTISRDNSKNTLYLQMNSLRAEDTAVYYCARHYYYGGSYAMDYWGQGTLVTVSS
VL: DIVMTQTPSSLSASVGDRVTITCRASQDISKYLNWYQQKPGKAPKLLIYHTSRLHSGVPSRFSGSGSGTDYTLTISSLQPEDFATYYCQQGNTLPYTFGPGTKVDIKR
notes: as for B4

Tests used:
human CD19 [1] = target: T1, human CD19; experiment: flow cytometry on Raji cells, PE-labelled anti-human secondary antibody, MFI against antibody concentration
Protocol: These immunoglobulins were assessed for antigen-binding affinity by half-maximal binding assays on B-cell lymphoma cell-lines (FACS) and compared to a chimeric version of FMC63 (this was to standardized level of staining from the anti-human Fc PE-labeled detection-antibody, as described in Example 2).
(§1) Binding of the CD19 humanized monoclonal antibodies by flow cytometry to Raji tumor cells (human Burkitt lymphoma, DSMZ ACC319), NALM-6 (human B cell precursor leukemia, DSMZ ACC128) and SU-DHL-6 (human B cell lymphoma, DSMZ ACC572) (all cell lines from DSMZ Braunschweig, Deutschland) was assessed. Cells were incubated with serial dilutions of each humanized monoclonal antibody. An irrelevant human IgG1 was used as a negative control. The cells were washed and detected by a phycoerythrin-labeled (PE) anti-human secondary antibody (eBioscience, CA, USA) and analyzed by flow cytometry. […] From MFI versus antibody concentration curves, Mid-Point Fluorescence (MPF) value for each anti-CD19 humanized antibody was calculated using the software GraphPad Prism 5 (CA, USA).

human CD19 [2] = target: T1, human CD19; experiment: flow cytometry, Raji cells, MPF vs chimeric FMC63
Protocol: as §1

human CD19 [3] = target: T1, human CD19; experiment: flow cytometry, NALM-6 cells, MPF vs chimeric FMC63
Protocol: as §1

| Binder | binding result (human CD19 [1]) | relative MPF (% of chimeric FMC63) (human CD19 [3]) [%] | further results |
| --- | --- | --- | --- |
| B1 | no binding (tested: about 10 ug/ml (Log(ug/ml) about 1)) |  |  |
| B2 | binds |  |  |
| B3 |  |  | binding result (human CD19 [2]): binds |
| B4 |  | 2.37 |  |
| B5 |  | 3.65 | relative MPF (% of chimeric FMC63) (human CD19 [2]): 8.43% |
| B6 | binds |  |  |
| B7 |  | 6.05 | relative MPF (% of chimeric FMC63) (human CD19 [2]): 9.72% |
| B8 |  | 10.9 | relative MPF (% of chimeric FMC63) (human CD19 [2]): 25.9% |
| B9 |  | 3.48 |  |
| B10 |  | 2.67 |  |
| B11 |  | 2.4 |  |
| B12 | binds |  |  |
| B13 |  | 32.9 | relative MPF (% of chimeric FMC63) (human CD19 [2]): 52.9% |
| B14 | binds |  |  |
| B15 | no binding (tested: about 10 ug/ml (Log(ug/ml) about 1)) |  |  |
| B16 |  | 23.5 | relative MPF (% of chimeric FMC63) (human CD19 [2]): 41.8% |
| B17 |  | 3.97 |  |
